Tests used:
[1] = target: T1, CD26 in J.CD26 cell lysate (Jurkat T cells with stable expression of CD26) (UniProt P27487 1-766); experiment: GST pull-down from J.CD26 lysate, immunoblot with anti-CD26
T1 construct: Whole CD26 from transfected cells, used as lysate in the GST pull-down; also called CD26 transfected Jurkat T cells

[2] = target: T2, CD26 on activated T cells (human, UniProt P27487 1-766); experiment: T cell-monocyte conjugates, confocal microscopy
T2 construct: whole, on cells; also called CD26 on T cells
T2 sequence (P27487 whole entry): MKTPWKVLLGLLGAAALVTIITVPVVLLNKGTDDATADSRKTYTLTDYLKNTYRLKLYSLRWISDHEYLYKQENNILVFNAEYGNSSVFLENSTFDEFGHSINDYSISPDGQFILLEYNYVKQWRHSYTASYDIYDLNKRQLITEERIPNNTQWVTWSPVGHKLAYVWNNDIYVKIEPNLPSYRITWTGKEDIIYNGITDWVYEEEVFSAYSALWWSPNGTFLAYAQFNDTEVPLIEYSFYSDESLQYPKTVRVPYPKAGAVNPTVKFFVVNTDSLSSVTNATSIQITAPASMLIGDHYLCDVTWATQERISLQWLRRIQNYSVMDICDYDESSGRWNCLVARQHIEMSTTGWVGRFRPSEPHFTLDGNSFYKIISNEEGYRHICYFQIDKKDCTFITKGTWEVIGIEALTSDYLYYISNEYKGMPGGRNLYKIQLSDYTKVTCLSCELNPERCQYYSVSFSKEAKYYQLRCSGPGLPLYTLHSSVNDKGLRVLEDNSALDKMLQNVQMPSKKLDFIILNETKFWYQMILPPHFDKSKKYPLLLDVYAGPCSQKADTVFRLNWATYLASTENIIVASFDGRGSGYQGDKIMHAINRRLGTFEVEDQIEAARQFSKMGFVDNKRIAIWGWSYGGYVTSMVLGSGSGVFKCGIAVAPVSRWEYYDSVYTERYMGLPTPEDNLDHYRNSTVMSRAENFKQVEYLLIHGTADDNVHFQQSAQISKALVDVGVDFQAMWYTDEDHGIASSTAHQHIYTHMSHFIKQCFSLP

[3] = target: T3, GST-CD26 D1 (residues 507-766) (UniProt P27487 507-766); experiment: GST pull-down from THP-1 lysate, immunoblot with anti-caveolin-1
T3 construct: Produced in COS-7 cells, on GSH beads; not shown: GST of mammalian vector pEBG
T3 sequence (P27487 507-766): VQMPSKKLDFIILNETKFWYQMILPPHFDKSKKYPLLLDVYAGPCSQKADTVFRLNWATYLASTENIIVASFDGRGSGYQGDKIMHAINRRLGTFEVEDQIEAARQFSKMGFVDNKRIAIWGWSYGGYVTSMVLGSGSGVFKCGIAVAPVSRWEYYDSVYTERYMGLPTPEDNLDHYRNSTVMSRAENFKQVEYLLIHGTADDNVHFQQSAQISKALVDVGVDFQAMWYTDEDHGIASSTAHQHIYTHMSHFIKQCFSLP

[4] = target: T4, GST-CD26 D2 (residues 267-584) (UniProt P27487 267-584); experiment: as above
T4 construct: range 267-584; Produced in COS-7 cells, on GSH beads; not shown: GST of mammalian vector pEBG
T4 sequence (P27487 267-584): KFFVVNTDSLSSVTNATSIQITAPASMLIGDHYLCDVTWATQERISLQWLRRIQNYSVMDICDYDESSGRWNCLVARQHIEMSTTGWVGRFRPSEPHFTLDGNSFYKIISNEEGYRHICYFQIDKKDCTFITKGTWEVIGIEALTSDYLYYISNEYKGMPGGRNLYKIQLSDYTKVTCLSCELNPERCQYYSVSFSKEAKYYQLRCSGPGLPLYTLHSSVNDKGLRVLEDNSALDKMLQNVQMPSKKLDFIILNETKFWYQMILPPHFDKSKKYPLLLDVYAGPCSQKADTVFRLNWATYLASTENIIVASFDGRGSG

[5] = target: T5, IRAK-4 (in TT-loaded monocytes) (human, UniProt Q9NWZ3 1-460); experiment: immunoprecipitation with anti-caveolin-1 pAb from TT-loaded monocytes
T5 sequence: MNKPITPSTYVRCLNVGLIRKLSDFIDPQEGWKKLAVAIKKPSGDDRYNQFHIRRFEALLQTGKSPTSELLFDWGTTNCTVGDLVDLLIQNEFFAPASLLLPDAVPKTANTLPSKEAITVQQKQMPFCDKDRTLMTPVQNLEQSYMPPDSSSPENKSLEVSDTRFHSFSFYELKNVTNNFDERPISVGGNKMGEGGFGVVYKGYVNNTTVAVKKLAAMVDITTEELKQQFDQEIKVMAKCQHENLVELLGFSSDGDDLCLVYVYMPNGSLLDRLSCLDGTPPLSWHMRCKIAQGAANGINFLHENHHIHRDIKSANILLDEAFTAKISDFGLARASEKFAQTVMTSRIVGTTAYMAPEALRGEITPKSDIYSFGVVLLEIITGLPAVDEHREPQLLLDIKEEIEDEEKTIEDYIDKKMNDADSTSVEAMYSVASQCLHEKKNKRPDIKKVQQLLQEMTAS

[6] = target: MyD88 (in TT-loaded monocytes) (human, UniProt Q99836 1-296); experiment: as above
Sequence of MyD88 (in TT-loaded monocytes) (Q99836 whole entry): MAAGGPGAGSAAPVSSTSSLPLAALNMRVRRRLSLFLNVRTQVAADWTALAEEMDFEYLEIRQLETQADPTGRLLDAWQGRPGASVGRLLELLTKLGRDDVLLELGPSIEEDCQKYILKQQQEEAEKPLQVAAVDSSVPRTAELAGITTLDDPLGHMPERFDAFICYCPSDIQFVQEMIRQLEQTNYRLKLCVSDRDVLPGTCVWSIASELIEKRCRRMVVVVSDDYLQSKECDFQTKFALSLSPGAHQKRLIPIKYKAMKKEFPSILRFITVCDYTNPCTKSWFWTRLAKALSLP

[7] = target: endogenous Tollip (THP-1 cells, monocytes) (human, UniProt Q9H0E2 2-274); experiment: immunoprecipitation with anti-caveolin-1 pAb from TT-loaded monocytes, immunoblot with anti-Tollip
[8] = target: T6, recombinant soluble CD26 (rsCD26 wt) (UniProt P27487 29-766, limits assumed); experiment: confocal microscopy of transfected HEK293 cells
T6 construct: extracellular domain; Used free, conjugated with Texas red, or coated on latex beads; also called sCD26-TR; CD26-TR
T6 sequence (P27487 29-766 limits assumed): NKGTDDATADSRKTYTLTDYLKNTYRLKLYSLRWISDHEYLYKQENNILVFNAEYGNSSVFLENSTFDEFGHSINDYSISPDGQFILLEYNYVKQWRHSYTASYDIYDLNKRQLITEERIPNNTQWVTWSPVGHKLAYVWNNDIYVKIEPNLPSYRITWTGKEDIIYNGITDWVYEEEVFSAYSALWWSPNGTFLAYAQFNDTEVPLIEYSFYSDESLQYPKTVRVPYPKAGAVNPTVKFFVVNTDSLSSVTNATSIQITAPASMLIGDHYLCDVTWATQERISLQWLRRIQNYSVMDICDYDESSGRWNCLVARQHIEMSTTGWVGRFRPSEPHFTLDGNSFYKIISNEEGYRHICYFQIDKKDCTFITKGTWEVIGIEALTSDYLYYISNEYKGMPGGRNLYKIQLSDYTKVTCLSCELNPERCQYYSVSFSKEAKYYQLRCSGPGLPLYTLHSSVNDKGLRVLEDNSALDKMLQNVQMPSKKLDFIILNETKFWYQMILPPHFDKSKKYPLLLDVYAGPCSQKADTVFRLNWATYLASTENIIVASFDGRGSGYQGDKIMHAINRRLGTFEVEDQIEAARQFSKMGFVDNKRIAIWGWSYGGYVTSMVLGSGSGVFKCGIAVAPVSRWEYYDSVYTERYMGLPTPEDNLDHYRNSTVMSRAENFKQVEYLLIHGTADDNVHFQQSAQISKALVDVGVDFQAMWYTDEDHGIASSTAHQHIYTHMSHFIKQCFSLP

[9] = target: T7, GFP-fused wild type CD26 (CD26 wt-GFP) on transfected HEK293 cells (UniProt P27487 1-766); experiment: confocal microscopy of transfected HEK293 cells
T7 construct: also called CD26-EGFP; GFP-CD26 wt; not shown: EGFP of vector pEB6-CAG-EGFP (engineered variant of Aequorea victoria GFP)
T7 sequence (P27487 whole entry, the tested form may be a part): as the sequence (P27487 whole entry) above

[10] = target: T8, CD26 S630A-GFP on transfected HEK293 cells (UniProt P27487 1-766); experiment: confocal microscopy of transfected HEK293 cells
T8 construct: also called DPPIV activity-deleted mutant (S630A); not shown: EGFP of vector pEB6-CAG-EGFP
T8 sequence (P27487 whole entry S630A): as the sequence (P27487 whole entry) above, with S630A counted along it

T1 sequence (P27487 whole entry): as the sequence (P27487 whole entry) above

B1: GST-Cav-1 (1-82) (other, UniProt Q03135 1-82, looked up)
chain: MSGGKYVDSEGHLYTVPIREQGNIYKPNNKAMADELSEKQVYDAHTKEIDLVNRDPKHLNDDVVKIDFEDVIAEPEGTHSFD
notes: range 1-82; not shown: GST of vector pGEX6p1
B1: no binding [1].

B2: caveolin-1 on the cell surface of TT-loaded monocytes (other)
chain: SGGKYVDSEGHLYTVPIREQGNIYKPNNKAMADELSEKQVYDAHTKEIDLVNRDPKHLNDDVVKIDFEDVIAEPEGTHSFDGIWKASFTTFTVTKYWFYRLLSALFGIPMALIWGIYFAILSFLHIWAVVPCIKSFLIEIQCISRVYSIYVHTVCDPLFEAVGKIFSNVRINLQKEI
notes: whole, on cells
B2: binds [2].

B3: endogenous caveolin-1 (THP-1 cell lysate, monocyte lysate) (other, human, UniProt Q03135 2-178, looked up)
chain: SGGKYVDSEGHLYTVPIREQGNIYKPNNKAMADELSEKQVYDAHTKEIDLVNRDPKHLNDDVVKIDFEDVIAEPEGTHSFDGIWKASFTTFTVTKYWFYRLLSALFGIPMALIWGIYFAILSFLHIWAVVPCIKSFLIEIQCISRVYSIYVHTVCDPLFEAVGKIFSNVRINLQKEI
notes: Endogenous whole protein from cell lysates
B3: no binding [3]; no binding [4]; no binding [5]. B3: no binding [6]; binds [7].

B4: GFP-fused full-length caveolin-1 (caveolin-1-GFP) in transfected cells (other, UniProt Q03135 1-178, looked up)
chain: MSGGKYVDSEGHLYTVPIREQGNIYKPNNKAMADELSEKQVYDAHTKEIDLVNRDPKHLNDDVVKIDFEDVIAEPEGTHSFDGIWKASFTTFTVTKYWFYRLLSALFGIPMALIWGIYFAILSFLHIWAVVPCIKSFLIEIQCISRVYSIYVHTVCDPLFEAVGKIFSNVRINLQKEI
notes: Expressed in HEK293 cells (with sCD26-TR) or stably in THP-1 cells (with Tollip); also called caveolin-1-EGFP; GFP-caveolin-1; not shown: EGFP of vector pEB6-CAG-EGFP
B4: binds [8].

B5: Texas red conjugated caveolin-1 (cav-TR) (other, UniProt Q03135 1-178, looked up)
chain: MSGGKYVDSEGHLYTVPIREQGNIYKPNNKAMADELSEKQVYDAHTKEIDLVNRDPKHLNDDVVKIDFEDVIAEPEGTHSFDGIWKASFTTFTVTKYWFYRLLSALFGIPMALIWGIYFAILSFLHIWAVVPCIKSFLIEIQCISRVYSIYVHTVCDPLFEAVGKIFSNVRINLQKEI
modifications: Texas red conjugated
notes: range 1-178; also called caveolin-1 wt recombinant protein
B5: binds [9]; no binding [10].

B6: GST-Cav-1 (102-178) (other, UniProt Q03135 102-178, looked up)
chain: LLSALFGIPMALIWGIYFAILSFLHIWAVVPCIKSFLIEIQCISRVYSIYVHTVCDPLFEAVGKIFSNVRINLQKEI
notes: range 102-178; not shown: GST of vector pGEX6p1
B6: no binding [1].

— patent US20070259824A1 (TOUDAI TLO, published 2007)
